A short description of series [1]: Thermal stability by differential scanning calorimetry (DSC). The note with it: 0.4 mg/mL in PBS, scan 20° C. to 100° C. at 60° C./hr. In kind it is physicochemical. As to the method: The thermal stability of the humanized antibody variants was assessed by differential scanning calorimetry (DSC) as described below.
400 μL of purified samples primarily at concentrations of 0.4 mg/mL in PBS were used for DSC analysis with a VP-Capillary DSC (Malvern Panalytical Inc., Westborough, MA). At the start of each DSC run, 5 buffer blank injections were performed to stabilize the baseline, and a buffer injection was placed before each sample injection for referencing. Each sample was scanned from 20° C. to 100° C. at a 60° C./hr rate, with low feedback, 8 sec filter, 3 min pre-scan thermostat, and 70 psi nitrogen pressure. The resulting thermograms were referenced and analyzed using Origin 7 software (OriginLab Corporation, Northampton, MA) to determine melting temperature (Tm) as an indicator of thermal stability.

Series [2] is described as follows: Capillary isoelectric focusing (cIEF). In kind it is physicochemical. The following applies: main isoform; 0.5 mg/mL. As to the method: (§1) The isoelectric point was measured by capillary isoelectric focusing (cIEF), the propensity for self-aggregation was measured by Affinity-capture self-interaction nanoparticle spectroscopy (AC-SINS) and non-specific binding was measured by NS-ELISA, as described below.
cIEF was carried out using Maurice C. (ProteinSimple®) system, System Suitability Kit and Method Development Kit. System suitability standard, fluorescence calibration standard, cartridge and samples were prepared according to vendor's recommendations. The capillary was automatically calibrated with a fluorescence standard preconditioned with Maurice cIEF System Suitability Kit to ensure the capillary was functioning properly. The antibody samples were diluted to a concentration of 0.5 mg/mL in a final volume of 40 μL in Gibco™ Distilled Water, and mixed Maurice cIEF Method Development Kit Samples. The samples were then vortexed, centrifuged and the supernatant pipetted into individual wells of a 96-well plate. All electropherograms were detected with UV absorbance at 280 nm. All data analyses were performed using vendor software Compass for iCE (ProteinSimple®).

A further series concerns ssDNA. As to the kind of experiment: NS-ELISA non-specific binding, ssDNA. The following applies: mAb at 100 nM. The protocol:
as §1
(§2) NS-ELISA was used to measure the propensity of the antibodies to bind to a range of biomolecules to emulate the undesirable non-specific interactions to biological matrices in vivo as described below.
(§3) NS-ELISA was carried out in Corning®96-well EIA/RIA Easy Wash™ Clear Flat Bottom Polystyrene High Bind Microplate coated overnight at 4° C. with 50 μL of Heparin (Sigma, H3149) diluted with 50 mM sodium carbonate pH 9.6 to a final concentration of 250 μg/mL. The plate was incubated for 2 days at room temperature, wells that were coated with heparin were not covered to allow air dry. […] Reactions were stopped after approximately 10 minutes by adding 100 μL of 1 M HCl to each well, and absorbance was read at 450 nm. Binding scores were calculated as the ratio of the ELISA signal of the antibody (antibody-treated) to the signal of a well containing buffer instead of the primary antibody (untreated). The cutoffs considered for each binding molecule (ssDNA, KLH, insulin, dsDNA and heparin) were internally calculated, based on the average of Zymeworks Inc. produced antibodies and antibodies benchmarks published in the literature.

A further series has as its target T1, Insulin (Homo sapiens, UniProt P01308).
T1 construct: purchased Sigma-Aldrich 19278
Description: NS-ELISA non-specific binding, insulin. The note with it: mAb at 100 nM. As to the method:
as §1, §2, §3

A further series concerns dsDNA. As to the kind of experiment: NS-ELISA non-specific binding, dsDNA. The following applies: mAb at 100 nM. As to the method: as §1, §2, §3
A short description of series [3]: NS-ELISA non-specific binding, heparin. The note with it: mAb at 100 nM. As to the method: as §1, §2, §3
For orientation: An ELISA detects its analyte on a solid surface through an enzyme-linked reagent.

For series [4], the target named is T2, NaPi2b expressed on IGROV-1 cells (Homo sapiens, UniProt O95436).
T2 construct: IGROV-1 cells express endogenous NaPi2b at a high level; endogenous in cells; host or cells: IGROV-1
T2 sequence (O95436 1-690): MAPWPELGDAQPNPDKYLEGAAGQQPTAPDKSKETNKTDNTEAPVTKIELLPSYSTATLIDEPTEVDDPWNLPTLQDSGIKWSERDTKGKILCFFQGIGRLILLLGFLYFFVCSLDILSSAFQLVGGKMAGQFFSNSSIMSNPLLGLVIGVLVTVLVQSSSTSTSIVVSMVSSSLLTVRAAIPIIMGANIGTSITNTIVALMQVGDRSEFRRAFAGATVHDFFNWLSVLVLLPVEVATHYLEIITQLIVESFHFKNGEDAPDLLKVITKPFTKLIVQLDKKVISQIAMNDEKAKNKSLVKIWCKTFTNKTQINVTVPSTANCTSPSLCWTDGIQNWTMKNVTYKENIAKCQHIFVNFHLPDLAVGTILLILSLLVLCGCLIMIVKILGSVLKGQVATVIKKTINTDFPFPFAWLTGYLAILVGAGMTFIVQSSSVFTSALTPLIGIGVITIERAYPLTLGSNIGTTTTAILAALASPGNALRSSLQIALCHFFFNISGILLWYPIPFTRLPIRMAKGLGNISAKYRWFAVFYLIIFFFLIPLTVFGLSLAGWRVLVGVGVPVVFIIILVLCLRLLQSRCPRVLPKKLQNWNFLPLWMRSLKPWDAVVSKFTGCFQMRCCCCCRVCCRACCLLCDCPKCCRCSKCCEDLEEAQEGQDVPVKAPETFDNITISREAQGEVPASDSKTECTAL
As to the kind of experiment: Cellular binding of bivalent antibodies to IGROV-1 cells by flow cytometry (Example 13). The note with it: IGROV-1, 24 hours at 4° C., NB = no cellular binding. As to the method:
IGROV-1 cells express endogenous NaPi2b at a high level.
Briefly, cells were seeded at 50,000 cells/well in conical-bottom 96-well plates and treated with test antibody for 24 hours at 4° C. to prevent internalization. Palivizumab (anti-RSV antibody, v22277) was included as a negative control. […] Following incubation, cells were washed and stained with anti-Human IgG Fc AF647 conjugate (Jackson Immuno Research Labs, West Grove, PA; Cat. No. 109-605-098) at 4° C. for 30 min. Following incubation and washing, fluorescence was detected by flow cytometry on a BD LSRFortessa™ Cell Analyzer (BD Biosciences, Franklin Lake, NJ) with 1,000 minimum events collected per well. The AF647/APC-A GeoMean (fluorescence signal geometric mean, proportional to anti-Human AF647 binding) was calculated for the live cell population using FlowJo™ Version 10.8.1 (BD Biosciences, Franklin Lake, NJ) and plotted for each test antibody using GraphPad Prism Version 9 (GraphPad Software, San Diego, CA).
In general terms: In flow cytometry, cells or beads pass a laser one at a time.

The next series concerns OVCAR-3 cells. As to the kind of experiment: In vitro cytotoxicity, 2D monolayer, CellTiter-Glo, OVCAR-3. In kind it is cell-based, human. The following applies: OVCAR-3, 4 days; IC = Incomplete Curve. The protocol:
(§4) The cytotoxicity as measured by cell growth inhibition of the humanized variant v29456 (H1L2) conjugated to various drug-linkers were assessed in a panel of NaPi2b-expressing cell lines as described below. Cell lines used were OVCAR-3 (ovarian carcinoma), IGROV-1 (ovarian carcinoma), and HCC-78 (lung carcinoma). ADCs with antibody palivizumab (anti-RSV) (v22277) were used as non-targeted controls.
(§5) OVCAR-3 were cultured in RPMI 1640 Medium, ATCC modification (Thermo Fisher Scientific, Waltham, MA) supplemented with 20% fetal bovine serum (FBS) (Thermo Fisher Scientific, Waltham, MA) and 0.01 μg/mL human insulin (Sigma-Aldrich, Oakville, ON). […] After incubation, CellTiter-Glo® reagent (Promega Corporation, Madison, WI) was added in all wells and luminescence corresponding to ATP present in each well was measured using a Synergy™H1 plate reader (BioTek Instruments, Winooski, VT). Percent cytotoxicity values were calculated by the following formula: (1−(Luminescence of Treated Cells/Average Luminescence of Untreated Cells))×100, and plotted against test article concentration using GraphPad Prism 9 software (GraphPad Software, San Diego, CA). EC50 values were calculated based on a non-linear regression log(agonist) versus response, variable slope (four parameters) by GraphPad Prism 9.
(In general: Cellular ATP, detected with luciferase, serves as a proxy for viable cell number.)

A further series relates to IGROV-1 cells. Description: In vitro cytotoxicity, 2D monolayer, CellTiter-Glo, IGROV-1. The note with it: IGROV-1, 4 days. The format is cell-based, human. The protocol:
as §4, §5

Another series has as its system HCC-78 cells. Description: In vitro cytotoxicity, 2D monolayer, CellTiter-Glo, HCC-78. In kind it is cell-based, human. The following applies: HCC-78, 4 days. The protocol: as §4, §5

The results in this text go back to patent US20250277030A1, “ANTI-NAPI2B ANTIBODIES AND METHODS OF USE” (Zymeworks BC Inc., priority 2022, published 2025).

T1 sequence (P01308 25-54 limits assumed): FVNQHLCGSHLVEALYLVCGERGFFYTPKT
T1 sequence (P01308 90-110 limits assumed): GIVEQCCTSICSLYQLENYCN

B1: v29452: humanized anti-NaPi2b IgG1/kappa antibody H1L3; VH SEQ ID NO:24, VL SEQ ID NO:30 (antibody, V domains shown)
VH: QVQLVQSGAEVKKPGASVKVSCKASGFTFTSYNVHWVRQAPGQGLEWMGAISPGNGDLSYAQKFQGRVTMTRDTSTSTVYMELSSLRSEDTAVYYCARGRTGMGAVDYWGQGTLVTVSS
VL: DVQMTQSPSSLSASVGDRVTITCRASQDVYSYLNWYQQKPGKAVKLLIYYTSRLQSGVPSRFSGSGSGTDYTLTISSLQPEDIATYYCQQYNIFPWTFGQGTKLEIK
modifications: v29452, v29456, v29460 VH (H1); v29449, v29450, v29451, v29452 VL (L3)
In the case of B1, in series [1], the “Fab Tm” value came out at 79.5 °C. The “cIEF pI” value in series [2] came out at 8.53. Besides, in the series on ssDNA, the “NS-ELISA binding score (ratio of signal between antibody-treated and untreated), ssDNA” value came to 1.22. For the same molecule, the “NS-ELISA binding score (ratio of signal between antibody-treated and untreated), Insulin” value with Insulin is on record as 1.03. Further, the “NS-ELISA binding score (ratio of signal between antibody-treated and untreated), dsDNA” value in the series on dsDNA came out at 1.0. In series [3], the “NS-ELISA binding score (ratio of signal between antibody-treated and untreated), Heparin” value is listed as 1.05. Besides, in series [4], the “Bmax (MFI)” value is recorded as 47,763 MFI and the “Curve Hill Slope (h)” value was determined as 0.9.

B2: v18993-DL2 (conjugate, chains of the INN, looked up)
VH: EVQLVESGGGLVQPGGSLRLSCAASGFSFSDFAMSWVRQAPGKGLEWVATIGRVAFHTYYPDSMKGRFTISRDNSKNTLYLQMNSLRAEDTAVYYCARHRGFDVGHFDFWGQGTLVTVSS
VL: DIQMTQSPSSLSASVGDRVTITCRSSETLVHSSGNTYLEWYQQKPGKAPKLLIYRVSNRFSGVPSRFSGSGSGTDFTLTISSLQPEDFATYYCFQGSFNPLTFGQGTKVEIK
modifications: drug-linker DL2
By EC50 is commonly meant the concentration giving half of the maximal effect. On to B2, for which the “Bmax (MFI)” value in series [4] is 39,758 MFI. In addition, the “Curve Hill Slope (h)” value in [4] is given as 1.1. Besides, the Kd in [4] (apparent Kd) was determined as 3 nM. The EC50 was found to be 0.49 nM in the series on OVCAR-3 cells, 2.12 nM in the series on IGROV-1 cells and 1.77 nM with HCC-78 cells.

B3: v18993-DL1 (conjugate, chains of the INN, looked up)
VH: B2 VH
VL: B2 VL
modifications: drug-linker DL1
As to B3, the values for the EC50 in the series with IGROV-1 cells and in the series on HCC-78 cells were 3.45 nM and 5.45 nM, respectively.
